Results as given in publication PMC5856483.

Biological target: FITC-Dsn1 560-572 synthetic peptide (S. cerevisiae) (S. cerevisiae)
Test: fluorescence polarisation

Work on “S. cerevisiae Spc24 155-213/Spc25 132-221 heterodimer (from UniProt Q04477 155-213; P40014 132-221) (complex)” yielded a Kd of 12 µM.
